Experimental data: PMC9482650, “Quantitative fragmentomics allow affinity mapping of interactomes” (Nature Communications, 2022)

Tests used:
DLG1_3, Q12959 = assay: holdup assay; set-up: key: below the threshold = too weak to quantify, mostly under pKd 3.1 to 4
Inadl_9, Q8NI35 = assay: holdup assay; set-up: key: below the threshold = too weak to quantify, mostly under pKd 3.1 to 4
[1] = plain residues with an end cap or a label only (N-terminal biotin on a linker: ado-ado)
[2] = plain residues with an end cap or a label only (N-terminal biotin on a linker: ahx)

DLG1_3, Q12959, sequence (Q12959 457-571): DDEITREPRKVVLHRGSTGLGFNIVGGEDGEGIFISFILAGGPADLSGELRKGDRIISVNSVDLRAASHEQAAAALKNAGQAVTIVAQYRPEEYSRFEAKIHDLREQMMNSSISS
Inadl_9, Q8NI35, sequence (Q8NI35 1530-1615): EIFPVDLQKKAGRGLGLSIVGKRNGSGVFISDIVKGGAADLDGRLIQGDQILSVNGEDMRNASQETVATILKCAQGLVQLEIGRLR

Binder | pKd (DLG1_3, Q12959; [1]) | pKd (Inadl_9, Q8NI35; [1]) | pKd (DLG1_3, Q12959; [2]) | pKd (Inadl_9, Q8NI35; [2])
TNSRHGETTV [FZD2, Q14332] | 4.14 | 3.74 | – | –
ARESQKVSHV [FAM110B, Q8TC76] | below the threshold | 3.9 | – | –
QSYPSKHDYV [CLDN18, P56856] | 3.49 | 4.12 | – | –
TESNLQTSSC [CGN, Q9P2M7] | – | – | below the threshold | below the threshold
VLYPREGTEV [FOXI1, Q12951] | 3.75 | 4.03 | – | –
DGVNEKVSCV [HTR2A, P28223] | below the threshold | below the threshold | – | –
KPGKGSETVV [FZD4, Q9ULV1] | below the threshold | below the threshold | – | –
GTGYDRKDYV [CLDN3, O15551] | 3.67 | 3.93 | – | –
MHIQEKGFHV [EPHA6, Q9UF33] | below the threshold | below the threshold | – | –
EKQAKGDTEF [CACYBP, Q9HB71] | – | – | below the threshold | below the threshold
LAHVKHKEQI [AQP3, Q92482] | below the threshold | below the threshold | – | –
REEPDHSTEV [CCRL2, O00421] | below the threshold | 4 | – | –
QLSFNTDTLC [ABCA2, Q9BZC7] | below the threshold | below the threshold | – | –
SPDRDRESIV [SCN5A, Q14524] | below the threshold | 3.54 | – | –
TGLWKHETTV [ADGRA3, Q8IWK6] | 4.78 | 3.74 | – | –

The next lines start with the values.

pKd (DLG1_3, Q12959; [1]) | pKd (Inadl_9, Q8NI35; [1]) | pKd (DLG1_3, Q12959; [2]) | pKd (Inadl_9, Q8NI35; [2]) | Binder
3.64 | below the threshold | – | – | SLNANEVEWF [RNF130, Q86XS8]
below the threshold | below the threshold | – | – | EDLEDEWEVI [TECPR2, O15040]
below the threshold | below the threshold | – | – | EPQYQPGENL [SRC, P12931]
below the threshold | below the threshold | – | – | TRKRSGEAAV [PFKM, P08237]
– | – | below the threshold | below the threshold | APSRKLNTEI [TIAM1, Q13009]
below the threshold | below the threshold | – | – | AAVENKVTDL [PLXNB1, O43157]
below the threshold | below the threshold | – | – | QKAPTKEFYA [SDC2, P34741]
3.57 | below the threshold | – | – | RSSGGDDFWF [KCNV1, Q6PIU1]
below the threshold | 3.59 | – | – | DDASLPVSDV [PLEKHA1, Q9HB21]
4.02 | below the threshold | – | – | ELSATVTTDC [TRIP6, Q15654]
4.09 | below the threshold | – | – | PPGKHLVTEV [KCNA7, Q96RP8]
below the threshold | below the threshold | – | – | EKCGKEFSEF [PRKACA, P17612]
below the threshold | below the threshold | – | – | STKRKLASAV [NCF1, P14598]
3.68 | below the threshold | – | – | RFQQRMQTHV [KIRREL1, Q96J84]
below the threshold | below the threshold | – | – | EDPRVEVTQF [SLC22A9, Q8IVM8]
below the threshold | below the threshold | – | – | PYPTADHMLA [JUP, P14923]
3.78 | 3.67 | – | – | LESTTVGTSV [KARS1, Q15046]
below the threshold | 3.66 | – | – | RDPPAEWTRV [PTPN18, Q99952]
below the threshold | 3.96 | – | – | APIAGFSSFV [SDK2, Q58EX2]
